The term Kd denotes a measure of binding affinity in units of concentration. Low values mean tighter binding, high ones weaker binding.

Positions count from the first letter of the chain named.

What all share (experiment): SPR, antibody captured, C2 as analyte;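 further: biacore at 37 °C, anti-C2 mAbs held by immobilised goat anti-human IgG, C2 alanine or serine mutants injected, double-referenced sensorgrams fitted to a 1:1 kinetic or steady-state model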
In general terms: Surface plasmon resonance follows binding to a sensor surface in real time, without labels.

For experiment [1], the target named is T1, human C2 V465A (human, UniProt P06681 21-752).
T1 sequence: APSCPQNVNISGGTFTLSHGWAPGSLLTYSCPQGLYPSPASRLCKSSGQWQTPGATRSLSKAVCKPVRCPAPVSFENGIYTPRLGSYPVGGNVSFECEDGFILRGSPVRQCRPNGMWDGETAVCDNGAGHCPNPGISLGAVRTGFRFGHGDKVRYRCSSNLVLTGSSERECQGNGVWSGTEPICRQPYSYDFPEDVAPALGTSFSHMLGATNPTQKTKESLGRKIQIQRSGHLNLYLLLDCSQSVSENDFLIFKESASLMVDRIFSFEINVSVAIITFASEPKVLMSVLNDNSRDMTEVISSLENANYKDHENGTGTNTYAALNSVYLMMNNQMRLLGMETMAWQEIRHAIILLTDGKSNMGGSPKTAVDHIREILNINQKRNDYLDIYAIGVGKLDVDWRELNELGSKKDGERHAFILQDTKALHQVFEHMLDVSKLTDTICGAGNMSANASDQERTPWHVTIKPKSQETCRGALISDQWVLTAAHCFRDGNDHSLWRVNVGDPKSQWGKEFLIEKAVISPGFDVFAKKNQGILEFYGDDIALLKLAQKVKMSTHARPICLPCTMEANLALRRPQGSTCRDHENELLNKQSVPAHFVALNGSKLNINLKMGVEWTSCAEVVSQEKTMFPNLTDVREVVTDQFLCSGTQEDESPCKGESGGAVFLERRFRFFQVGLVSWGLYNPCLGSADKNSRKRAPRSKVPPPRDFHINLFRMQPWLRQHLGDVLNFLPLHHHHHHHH

Experiment [2] has as its target T2, human C2 E275A (human, UniProt P06681 21-752).
T2 sequence: T1 sequence with E255A, A445V

Experiment [3] addresses T3, human C2 D454A (human, UniProt P06681 21-752).
T3 sequence: T1 sequence with D434A, A445V

Experiment [4] concerns the target T4, human C2 V418A (human, UniProt P06681 21-752).
T4 sequence: T1 sequence with V398A, A445V

B1: RF16-242 (antibody, human IgG4 S228P, lambda, V domains shown)
VH: EVQLLQSGAEVKKPGESLKISCKGSGYSFTSYWIGWVRQMPGKGLEWMGIIYPGDSDTRYSPSFQGQVTISADKSISTAYLQWSSLKASDTAMYYCARRGHYGDYFDYWGQGTLVTVSS
VL: SYELTQPPSVSVSPGQTARITCSGDALPKKYAYWYHQKSGQAPVLVIYEDRRRPSEIPERFSGSSSGTMATLTITGAQVEDEGVYFCYSRDRAGNQRVFGGGTQLTVLG
notes: pH-dependent anti-C2 antibody from a phage display library
On to B1, for which the Kd was found to be 16.3 nM in experiment [1], 42.8 nM in experiment [2], 35.4 nM in experiment [3] and 6.8 nM in experiment [4].

Source of the values: patent publication US20220332804A1 (CSL INNOVATION, published 2022).
